Results as given in publication PMC11251181, “Crystal structure of MAGEA4 MHD-RAD18 R6BD reveals a flipped binding mode compared to AlphaFold2 prediction” (The EMBO Journal, 2024).
No end group written: not given here.

Target: T1, MAGEA4 MAGE homology domain (MHD), residues D101-V317 (human, UniProt P43358 101-317)
T1 construct: MAGEA4, human, MAGE homology domain, residues D101-V317; His6 tag removed with TEV protease; also called MAGEA4 MHD; MAGEA4-MHD; source: E. coli BL21 (DE3), purified (Ni-NTA, TEV cleavage, Superdex-75 SEC); not shown: His6, N-terminal, cleaved
T1 sequence (looked up): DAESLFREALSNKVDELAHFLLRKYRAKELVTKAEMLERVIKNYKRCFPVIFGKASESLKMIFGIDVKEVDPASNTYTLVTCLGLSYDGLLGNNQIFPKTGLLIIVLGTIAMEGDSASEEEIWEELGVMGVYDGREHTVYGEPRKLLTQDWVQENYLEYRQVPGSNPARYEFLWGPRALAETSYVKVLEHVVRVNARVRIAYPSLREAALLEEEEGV
Experiment: crystal structure; MAGEA4 MHD (10.3 mg/mL) incubated on ice with a 1:2 molar ratio of RAD18 R6BD in 20 mM Tris HCl pH 7.5, 200 mM NaCl, 1 mM TCEP; sitting drop vapor diffusion; 2.58 Å
Conditions: both partners purified

binding result: binds
B1: RAD18 RAD6-binding domain (R6BD) peptide, residues H339-G366 (peptide, UniProt Q9NS91 339-366, looked up)
peptide: HSKYRKKHKSEFQLLVDQARKGYKKIAG-NH2
notes: also called RAD18 R6BD; source: synthetic peptide (UNC Chapel Hill High-Throughput Peptide Synthesis and Array Facility)
